In article PMC6328869, “Functional and structural studies of tolloid-like 1 mutants associated with atrial-septal defect 6” (Bioscience Reports, 2018):

T1: recombinant murine chordin (murine, UniProt Q9Z0E2 27-948)
T1 construct: Chordin, murine, recombinant (R&D Systems); The source and species of chordin are told for the cleavage assay; source: bought: R&D Systems
T1 sequence (looked up): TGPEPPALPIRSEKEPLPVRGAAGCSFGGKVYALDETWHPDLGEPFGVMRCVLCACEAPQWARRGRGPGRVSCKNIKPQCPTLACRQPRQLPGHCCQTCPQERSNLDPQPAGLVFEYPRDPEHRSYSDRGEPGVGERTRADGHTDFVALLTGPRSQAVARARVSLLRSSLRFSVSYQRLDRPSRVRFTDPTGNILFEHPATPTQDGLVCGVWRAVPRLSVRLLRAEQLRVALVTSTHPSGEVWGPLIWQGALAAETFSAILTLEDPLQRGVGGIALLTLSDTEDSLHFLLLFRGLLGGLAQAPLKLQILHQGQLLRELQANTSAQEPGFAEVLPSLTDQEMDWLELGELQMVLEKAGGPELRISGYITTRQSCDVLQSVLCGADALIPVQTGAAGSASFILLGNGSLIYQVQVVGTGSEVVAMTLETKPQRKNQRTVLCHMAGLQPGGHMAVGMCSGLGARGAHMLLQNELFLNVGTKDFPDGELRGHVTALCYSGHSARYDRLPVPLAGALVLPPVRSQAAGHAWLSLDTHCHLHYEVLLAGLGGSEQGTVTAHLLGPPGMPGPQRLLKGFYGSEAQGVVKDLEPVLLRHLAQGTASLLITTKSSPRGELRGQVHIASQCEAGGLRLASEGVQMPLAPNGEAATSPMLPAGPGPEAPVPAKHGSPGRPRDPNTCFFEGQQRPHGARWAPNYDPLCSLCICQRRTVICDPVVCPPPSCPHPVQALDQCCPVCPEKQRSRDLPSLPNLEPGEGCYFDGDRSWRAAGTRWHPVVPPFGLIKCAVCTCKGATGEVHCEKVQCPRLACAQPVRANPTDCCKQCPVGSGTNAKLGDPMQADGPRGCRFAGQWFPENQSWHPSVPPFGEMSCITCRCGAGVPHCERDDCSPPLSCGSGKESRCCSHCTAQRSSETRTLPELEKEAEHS


Tests used:
[1] = molecular target: T1, recombinant murine chordin; test: SPR; Sensiq Pioneer biosensor; chordin amine-coupled (NHS/EDC, 10 mM acetate pH 4.5) to a COOH1 SPR chip; TLL1 variant as free analyte at 10-400 nM, 10 ul/min for 11 min; HBS-TE (HEPES-buffered saline, 0.005% Tween 20), 25 °C; regeneration with 10 mM HCl; global fitting; Kd from koff/kon; conditions: both partners purified
[2] = molecular target: T1, recombinant murine chordin; test: cell-based or functional assay

Ka [1] | Kd [1] | koff [1] | kon [1] | cleavage of chordin (densitometry of the intact chordin band after SDS/PAGE), activity against wild-type TLL1 [2] | Binder
8.6e+06 M⁻¹ | 0.117 µM | 0.000305 s⁻¹ | 2600 M⁻¹ s⁻¹ | – | recombinant wild-type mammalian tolloid-like 1 (TLL1) (enzyme, human, UniProt O43897-1 148-1013, looked up, Human tolloid-like 1 (TLL1), functional enzyme lacking the signal peptide and the latency pro-domain; encoded by nucleotides 1089-3686 of NM_012464.4 (mRNA variant 1 TLL1); Expressed behind the signal peptide of the procollagen I alpha 1 chain (nucleotides 5127-5192 of NM_007400.1 as printed) for secretion; also called WT; native TLL1; source: HT-1080 cells, stably transfected (pIRESneo3), …) AATSRTERIWPGGVIPYVIGGNFTGSQRAMFKQAMRHWEKHTCVTFIERSDEESYIVFTYRPCGCCSYVGRRGNGPQAISIGKNCDKFGIVVHELGHVIGFWHEHTRPDRDNHVTIIRENIQPGQEYNFLKMEPGEVNSLGERYDFDSIMHYARNTFSRGMFLDTILPSRDDNGIRPAIGQRTRLSKGDIAQARKLYRCPACGETLQESNGNLSSPGFPNGYPSYTHCIWRVSVTPGEKIVLNFTTMDLYKSSLCWYDYIEVRDGYWRKSPLLGRFCGDKLPEVLTSTDSRMWIEFRSSSNWVGKGFAAVYEAICGGEIRKNEGQIQSPNYPDDYRPMKECVWKITVSESYHVGLTFQSFEIERHDNCAYDYLEVRDGTSENSPLIGRFCGYDKPEDIRSTSNTLWMKFVSDGTVNKAGFAANFFKEEDECAKPDRGGCEQRCLNTLGSYQCACEPGYELGPDRRSCEAACGGLLTKLNGTITTPGWPKEYPPNKNCVWQVVAPTQYRISVKFEFFELEGNEVCKYDYVEIWSGLSSESKLHGKFCGAEVPEVITSQFNNMRIEFKSDNTVSKKGFKAHFFSDKDECSKDNGGCQHECVNTMGSYMCQCRNGFVLHDNKHDCKEAECEQKIHSPSGLITSPNWPDKYPSRKECTWEISATPGHRIKLAFSEFEIEQHQECAYDHLEVFDGETEKSPILGRLCGNKIPDPLVATGNKMFVRFVSDASVQRKGFQATHSTECGGRLKAESKPRDLYSHAQFGDNNYPGQVDCEWLLVSERGSRLELSFQTFEVEEEADCGYDYVELFDGLDSTAVGLGRFCGSGPPEEIYSIGDSVLIHFHTDDTINKKGFHIRYKSIRYPDTTHTKK
55000 M⁻¹ | 18 µM | 0.0006 s⁻¹ | 33 M⁻¹ s⁻¹ | ~25 % lower than wild-type TLL1 | recombinant TLL1 mutated variant V238A (enzyme, human, UniProt O43897-1 148-1013, looked up, Human tolloid-like 1 (TLL1), functional enzyme lacking the signal peptide and the latency pro-domain; encoded by nucleotides 1089-3686 of NM_012464.4 (mRNA variant 1 TLL1); mutation found in ASD6 patients, in the catalytic domain; Same construct as m1 (procollagen I alpha 1 signal peptide for secretion, C-terminal 7xHis) with the point mutation; also called Val238Ala; mutation 2; source: HT-1080 …) AATSRTERIWPGGVIPYVIGGNFTGSQRAMFKQAMRHWEKHTCVTFIERSDEESYIVFTYRPCGCCSYVGRRGNGPQAISIGKNCDKFGIAVHELGHVIGFWHEHTRPDRDNHVTIIRENIQPGQEYNFLKMEPGEVNSLGERYDFDSIMHYARNTFSRGMFLDTILPSRDDNGIRPAIGQRTRLSKGDIAQARKLYRCPACGETLQESNGNLSSPGFPNGYPSYTHCIWRVSVTPGEKIVLNFTTMDLYKSSLCWYDYIEVRDGYWRKSPLLGRFCGDKLPEVLTSTDSRMWIEFRSSSNWVGKGFAAVYEAICGGEIRKNEGQIQSPNYPDDYRPMKECVWKITVSESYHVGLTFQSFEIERHDNCAYDYLEVRDGTSENSPLIGRFCGYDKPEDIRSTSNTLWMKFVSDGTVNKAGFAANFFKEEDECAKPDRGGCEQRCLNTLGSYQCACEPGYELGPDRRSCEAACGGLLTKLNGTITTPGWPKEYPPNKNCVWQVVAPTQYRISVKFEFFELEGNEVCKYDYVEIWSGLSSESKLHGKFCGAEVPEVITSQFNNMRIEFKSDNTVSKKGFKAHFFSDKDECSKDNGGCQHECVNTMGSYMCQCRNGFVLHDNKHDCKEAECEQKIHSPSGLITSPNWPDKYPSRKECTWEISATPGHRIKLAFSEFEIEQHQECAYDHLEVFDGETEKSPILGRLCGNKIPDPLVATGNKMFVRFVSDASVQRKGFQATHSTECGGRLKAESKPRDLYSHAQFGDNNYPGQVDCEWLLVSERGSRLELSFQTFEVEEEADCGYDYVELFDGLDSTAVGLGRFCGSGPPEEIYSIGDSVLIHFHTDDTINKKGFHIRYKSIRYPDTTHTKK
41000 M⁻¹ | 25 µM | 0.00091 s⁻¹ | 37 M⁻¹ s⁻¹ | ~25 % lower than wild-type TLL1 | recombinant TLL1 mutated variant I629V (enzyme, human, UniProt O43897-1 148-1013, looked up, Human tolloid-like 1 (TLL1), functional enzyme lacking the signal peptide and the latency pro-domain; encoded by nucleotides 1089-3686 of NM_012464.4 (mRNA variant 1 TLL1); mutation found in ASD6 patients, in the CUB3 domain; Same construct as m1 (procollagen I alpha 1 signal peptide for secretion, C-terminal 7xHis) with the point mutation; also called Ile629Val; mutation 3; source: HT-1080 …) AATSRTERIWPGGVIPYVIGGNFTGSQRAMFKQAMRHWEKHTCVTFIERSDEESYIVFTYRPCGCCSYVGRRGNGPQAISIGKNCDKFGIVVHELGHVIGFWHEHTRPDRDNHVTIIRENIQPGQEYNFLKMEPGEVNSLGERYDFDSIMHYARNTFSRGMFLDTILPSRDDNGIRPAIGQRTRLSKGDIAQARKLYRCPACGETLQESNGNLSSPGFPNGYPSYTHCIWRVSVTPGEKIVLNFTTMDLYKSSLCWYDYIEVRDGYWRKSPLLGRFCGDKLPEVLTSTDSRMWIEFRSSSNWVGKGFAAVYEAICGGEIRKNEGQIQSPNYPDDYRPMKECVWKITVSESYHVGLTFQSFEIERHDNCAYDYLEVRDGTSENSPLIGRFCGYDKPEDIRSTSNTLWMKFVSDGTVNKAGFAANFFKEEDECAKPDRGGCEQRCLNTLGSYQCACEPGYELGPDRRSCEAACGGLLTKLNGTVTTPGWPKEYPPNKNCVWQVVAPTQYRISVKFEFFELEGNEVCKYDYVEIWSGLSSESKLHGKFCGAEVPEVITSQFNNMRIEFKSDNTVSKKGFKAHFFSDKDECSKDNGGCQHECVNTMGSYMCQCRNGFVLHDNKHDCKEAECEQKIHSPSGLITSPNWPDKYPSRKECTWEISATPGHRIKLAFSEFEIEQHQECAYDHLEVFDGETEKSPILGRLCGNKIPDPLVATGNKMFVRFVSDASVQRKGFQATHSTECGGRLKAESKPRDLYSHAQFGDNNYPGQVDCEWLLVSERGSRLELSFQTFEVEEEADCGYDYVELFDGLDSTAVGLGRFCGSGPPEEIYSIGDSVLIHFHTDDTINKKGFHIRYKSIRYPDTTHTKK
24000 M⁻¹ | 42 µM | 0.0018 s⁻¹ | 43 M⁻¹ s⁻¹ | 50 % lower than wild-type TLL1 | recombinant TLL1 mutated variant M182L (enzyme, human, UniProt O43897-1 148-1013, looked up, Human tolloid-like 1 (TLL1), functional enzyme lacking the signal peptide and the latency pro-domain; encoded by nucleotides 1089-3686 of NM_012464.4 (mRNA variant 1 TLL1); mutation found in ASD6 patients, in the catalytic domain; Same construct as m1 (procollagen I alpha 1 signal peptide for secretion, C-terminal 7xHis) with the point mutation; also called Met182Leu; mutation 1; source: HT-1080 …) AATSRTERIWPGGVIPYVIGGNFTGSQRAMFKQALRHWEKHTCVTFIERSDEESYIVFTYRPCGCCSYVGRRGNGPQAISIGKNCDKFGIVVHELGHVIGFWHEHTRPDRDNHVTIIRENIQPGQEYNFLKMEPGEVNSLGERYDFDSIMHYARNTFSRGMFLDTILPSRDDNGIRPAIGQRTRLSKGDIAQARKLYRCPACGETLQESNGNLSSPGFPNGYPSYTHCIWRVSVTPGEKIVLNFTTMDLYKSSLCWYDYIEVRDGYWRKSPLLGRFCGDKLPEVLTSTDSRMWIEFRSSSNWVGKGFAAVYEAICGGEIRKNEGQIQSPNYPDDYRPMKECVWKITVSESYHVGLTFQSFEIERHDNCAYDYLEVRDGTSENSPLIGRFCGYDKPEDIRSTSNTLWMKFVSDGTVNKAGFAANFFKEEDECAKPDRGGCEQRCLNTLGSYQCACEPGYELGPDRRSCEAACGGLLTKLNGTITTPGWPKEYPPNKNCVWQVVAPTQYRISVKFEFFELEGNEVCKYDYVEIWSGLSSESKLHGKFCGAEVPEVITSQFNNMRIEFKSDNTVSKKGFKAHFFSDKDECSKDNGGCQHECVNTMGSYMCQCRNGFVLHDNKHDCKEAECEQKIHSPSGLITSPNWPDKYPSRKECTWEISATPGHRIKLAFSEFEIEQHQECAYDHLEVFDGETEKSPILGRLCGNKIPDPLVATGNKMFVRFVSDASVQRKGFQATHSTECGGRLKAESKPRDLYSHAQFGDNNYPGQVDCEWLLVSERGSRLELSFQTFEVEEEADCGYDYVELFDGLDSTAVGLGRFCGSGPPEEIYSIGDSVLIHFHTDDTINKKGFHIRYKSIRYPDTTHTKK
